Assay results from the supplement of paper PMC9170038.

tested on: MS2 coat protein; experiment: apparent KD of MS2 coat protein, switch ON state; designed switch direction (-1 OFF switch, 1 ON switch): -1; higher = weaker reporter binding; settings: FMN input: 0 or 200 uM; Eterna round: R93 (includes R88 designs)
Method in brief: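 Apparent KD per design is the median of normalised cluster binding-curve fits. Designed RNA switches transcribed on-chip from Illumina sequencing clusters were titrated with SNAP-549-labelled MS2 coat protein in twofold steps from 0.7 or 1.5 nM to 3 µM, with 0.8–1.5 h down to 10–20 min per step. Buffer: 100 mM Tris-HCl pH 7.5, 80 mM KCl, 4 mM MgCl2, without or with constant ligand.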

“AGAAAACAUGAGGAUCACCCAUGUGAGGAUAUGCGAAUAAAGAAACAAAUAAAAGAAAGCAGAAGGCACAACAA [Ex 1 Tesla 4]” and “AAAAAGGCAGGAUAUACGAGUCAAAGAAAAGACAAAAGGAGACAUGAGGAUCACCCAUGUAGAAGGGCCAAAAA [Fiskers exclusion D2 62% 5]” are within 1.5-fold of each other in “apparent KD of MS2 coat protein” value: 31.9 nM for the first, 36.8 nM for the second.

First: AACAAGACAGGAUAUACAUGAGGAUCACCCAUGUGAGAAUAAAGUGGCGUAACACAAAGUAGAAGGGUCAUGGA [Ruby 6]
Second: CUCAUGUCAGGAUAUCAGUAGUAAAAAAAUAAAAUUACUACUGAGAAGGGACAUGAGGAUCACCCAUGUCCAAA [EX4 367: Super Stable 67]
The “apparent KD of MS2 coat protein” value of the first is 2.9-fold lower: 32.6 nM for the first, 93.1 nM for the second.

Going from “AAGAAUGGAGGAUAUACAUGAGGAUCACCCAUGUAAAAGAAAGAAAAGGGAAAGAAAAGUAGAAGGCCAAAGAA [Sekhaenre/Akhenre Merenptah Siptah]” to “GCUUGGGUAGGAUAUACAUGAGGAUCACCCAUGUGAGAGAAAAAAGUGAGAAAGAAAAGUAGAAGGACUUGAGG [salish99-ex3-83]”, the “apparent KD of MS2 coat protein” value rises from 28.5 nM to 177 nM (6.2-fold).

“AAAAUGUUAGGAUAUGUGAAGGCGUCUGAUAGACGAGGCCUGCAGAAGGAACAUGAGGAUCACCCAUGUAAAAA [Mod 3 of Nando's Round 1 Power Srip]” and “UAACAGUCAGGAUAUGGACAAUACAAUACAAACAAAUAAAGCCAGAAGGGACAUGAGGAUCACCCAUGUAAACA [Simple]” are within 1.5-fold of each other in “apparent KD of MS2 coat protein” value: 34 nM for the first, 41.6 nM for the second.

“AGGAAACAUGAGGAUCACCCAUGUGAGGAUAUUCAAAAGAAAAGAAAAGAAAGAAGAAGAAGAAGGCACAAGAA [Khayu]” and “AACAAGUCAGGAUAUCAUACUAAUCACUUGCUUUAAAUGUAUGAGAAGGGACAUGAGGAUCACCCAUGUAAAGA [Exclusion4-cac3]” are within 1.5-fold of each other in “apparent KD of MS2 coat protein” value: 32.8 nM for the first, 46.8 nM for the second.

“GGUUGUGGAGGAUAUACAUGAGGAUCACCCAUGUGAGAGAAAAAAGUGAGAAAGAAAAGUAGAAGGUCAUGACG [salish99-ex3-65]” and “AAGAAGUCAGGAUAUGGUGCUCGUCACUUGCGUGAUGAGUACCAGAAGGGACAUGAGGAUCACCCAUGUAAAGA [Opal 21]” are within 1.5-fold of each other in “apparent KD of MS2 coat protein” value: 33.8 nM for the first, 47.1 nM for the second.

Compared with “AACACACAUGAGGAUCACCCAUGUCAGGAUAUGCCGGGUUAGAGCCAACUGAAAAACCGUAGAAGGGACGAAAA [Bilbo Confounded 9 - Jieux - Exclusion 1]”, “AAAAAACAUGAGGAUCACCCAUGUAAGGAUAUGCUCGGGCGAAAAAGCAAAAAAAAGAGCAGAAGGUACAAAAA [66%, Wbt, 42]” is 3.3-fold lower in “apparent KD of MS2 coat protein” value: 66.9 nM for the first, 20.5 nM for the second.

Going from “AGAAUACAUGAGGAUCACCCAUGUGAGGAUAUGUAGAUAAAAAUAAAAUAAAAUAAAUACAGAAGGCACAAAAG [EX 1 May 19]” to “CUUAAACAUGAGGAUCACCCAUGUGAGGAUAUGAUGCGAAUAAAGAAAGAAGAAAGCAUCAGAAGGCACAUAUG”, the “apparent KD of MS2 coat protein” value falls from 61.3 nM to 27.7 nM (2.2-fold).

Going from “AAAGUACGAGGAUAUACAUAGAUACAGAUACAUGUAGACGUACAUGAGGAUCACCCAUGUAGAAGGCGUACAAG [Mat - Same state - Mayanna Mod - D116]” to “UGUUGGCGAGGAUAUACAUGAGGAUCACCCAUGUGAGAGAAAAAAGUGAGAAAGAAAAGUAGAAGGCGCUGACA [salish99-ex3-07]”, the “apparent KD of MS2 coat protein” value falls from 172 nM to 46.2 nM (3.7-fold).

Compared with “AGGAAACAUGAGGAUCACCCAUGUGAGGAUAUUGAAAAGAAAAGAAAAGAAAGAAGAACAAGAAGGCACAAGAA [Tiu]”, “AGAAAGUCAGGAUAUAUGCGAAAAAUAAAAAAAAUAAAAACAUAGAAGGGACAUGAGGAUCACCCAUGUUAAGA [Mat - Exclusion 4 - Mayanna - D136]” is 1.7-fold higher in “apparent KD of MS2 coat protein” value: 29.6 nM for the first, 50 nM for the second.

“AAAUAGCAAGGAUAUACAUGAGGAUCACCCAUGUAAAAAUGGAAAGUAAAAGAAUAAAGUAGAAGGUGCAAAUA [Ex 3 Tesla 2]” and “AACAGGUUAGGAUAUAUCCAACAAAUAAAAAAAAUAUAAGGAUAGAAGGAACAUGAGGAUCACCCAUGUUAACA [May 30]” are within 1.5-fold of each other in “apparent KD of MS2 coat protein” value: 20.6 nM for the first, 20.8 nM for the second.

“AAGGUACGAGGAUAUACAUAGAUACAGACACAUGUGGAUGUACAUGAGGAUCACCCAUGUAGAAGGCGUAUAUA [AJ 21]” and “AAAAAAGGAGGAUAUACGUACAUGUCAAAAGACGUGAAGGGACAUGAGGAUCACCCAUGUAGAAGGCCUAAAAA [JL Part Open 33]” are within 1.5-fold of each other in “apparent KD of MS2 coat protein” value: 64 nM for the first, 45.2 nM for the second.

“AAAAGGAUAGGAUAUACAUGAGGAUCACCCAUGUGAAUAAAUAAAAUAAAUAAAUAAAGUAGAAGGGUCAAUAA [LROPPY Exclusion 3 - v05_deltaG=3.6 break up the As]” and “AAAAAACAUGAGGAUCACCCAUGUAAGGAUAUGCAGAUUAUAAGAAAAAAAAAAAAAAGCAGAAGGUACAAAAA [Default title]” are within 1.5-fold of each other in “apparent KD of MS2 coat protein” value: 27.8 nM for the first, 37.4 nM for the second.

“AAGAAGUCAGGAUAUGCCAAAGAUCACGAAAGUGACUAAGGGCAGAAGGGACAUGAGGAUCACCCAUGUAAAGA [Opal 4]” and “AAGGUACGAGGAUAUACAUAGAUACAGACACAUGUUCAUGUACAUGAGGAUCACCCAUGUAGAAGGCGUAUAUA [AJ 17]” are within 1.5-fold of each other in “apparent KD of MS2 coat protein” value: 42.9 nM for the first, 56.7 nM for the second.

First: AGCUAGUCAGGAUAUACGAAAAUGAACGAAGCUGAGAAGGGACAUGAGGAUCACCCAUGUAGAAGGGACUAGCA [Diamond 34]
Second: AAGAAGGUAGGAUAUACAUGAGGAUCACCCAUGUAAAAGAAAGAAAGGGAAAAGAAAAGUAGAAGGACCAAGAA [Usermaatre Amenemope]
The “apparent KD of MS2 coat protein” value of the first is 2-fold higher: 47.7 nM for the first, 23.5 nM for the second.

First: AAGAGACAUGAGGAUCACCCAUGUGAGGAUAUGACGUAAAUAAAGAAAGAAGAAAUCGUCAGAAGGCACACCAA [55%, Disencluded 2, 4]
Second: AAAAAACAUGAGGAUCACCCAUGUAAGGAUAUGACUUAAAUAAAGAAAGAAGAAAUAGUCAGAAGGUACAAAUA [Disincluded (MS2 Riboswitches - States energetically close)]
The “apparent KD of MS2 coat protein” value of the first is 2.4-fold higher: 48.4 nM for the first, 20.4 nM for the second.

Going from “AAAAUACAUGAGGAUCACCCAUGUGAGGAUAUUAGAAAGGGAAUAAAAUAACCCAAACUAAGAAGGCACAAAAA [Ex 1 May 27]” to “AGCUAGUCAGGAUAUACGAAAAUGUAAAAAGAAGUGAAGGGACAUGAGGAUCACCCAUGUAGAAGGGACUAGAA [74%, Web mod - With 4 less C's]”, the “apparent KD of MS2 coat protein” value rises from 28.5 nM to 58 nM (2-fold).

Compared with “AGAAAGUCAGGAUAUACAGAAAAAAAAACGAAAAAAAAUCUGUAGAAGGGACAUGAGGAUCACCCAUGUAAAGA [Mat - Exclusion 4 - Mayanna - D124]”, “AAGAAGUGAGGAUAUCGAAAAGAAAAGAAAAGAAAAGAAAACGAGAAGGCACAUGAGGAUCACCCAUGUAAGAA [Setutre Darius I the Great]” is 2.4-fold lower in “apparent KD of MS2 coat protein” value: 66.1 nM for the first, 28.1 nM for the second.

Compared with “AACUGACAUGAGGAUCACCCAUGUCAGGAUAUGCUUCAUAAAACAAAAACAAAAUGAUGCAGAAGGGACAUGAA [Design 26 :P Sub-opt 2]”, “CUCUAGUUAGGAUAUGCAAGAAAAGAAAAGAAAGAAAAGAAGCAGAAGGAACAUGAGGAUCACCCAUGUAAGAA [EteRNA is fun!]” is 3-fold higher in “apparent KD of MS2 coat protein” value: 16.3 nM for the first, 49.4 nM for the second.

“CCAGGACAUGAGGAUCACCCAUGUGAGGAUAUCUGUAUUCAAUCCUCGGAUUGAAUACAGAGAAGGCACAUGGA [Ex1: 659]” and “AAGAAGGCAGGAUAUACAUGAGGAUCACCCAUGUAAAAGAAAGAGGGAAAAGAGAAAAGUAGAAGGGCCAAGAA [Setepenre-meryamun Alexander III]” are within 1.5-fold of each other in “apparent KD of MS2 coat protein” value: 38.6 nM for the first, 27.8 nM for the second.

“AGAAAGUCAGGAUAUGCAGAUAAAAAAACGAAAAAAAAUCUGCAGAAGGGACAUGAGGAUCACCCAUGUAAAGA [Mat - Exclusion 4 - Mayanna - D111]” and “CUCUUGUCAGGAUAUAGAAGAAAAGAAGAGAAAGAAAAGAACUAGAAGGGACAUGAGGAUCACCCAUGUAAGAA [EteRNA is fun!]” are within 1.5-fold of each other in “apparent KD of MS2 coat protein” value: 52.3 nM for the first, 48.7 nM for the second.

Compared with “UUAGAACAUGAGGAUCACCCAUGUGAGGAUAUGCAAUACUAAAAAAAAGAUAAUUAUAGCAGAAGGCACGUAGU [JR_EXc001_Sub805]”, “AACAGGACAGGAUAUACAUGAGGAUCACCCAUGUCACAACAAAGCAGCGCAACACAAAGUAGAAGGGUCAUGGA [Ruby 13]” is 2.2-fold higher in “apparent KD of MS2 coat protein” value: 35.1 nM for the first, 75.8 nM for the second.

In the case of “AGUAUGCGAGGAUAUACAUGAGGAUCACCCAUGUGAGAGAUAAAAGUGAGAAAGACAUGUAGAAGGCGCGUACA [JL Lego Mod 24]”, the “apparent KD of MS2 coat protein” value is reported as 38.9 nM.
